Experimental data from article PMC5435892 (Genes & Development, 2017).
Positions count from the first letter of the chain named. Numbers in names are those of the source.

B1: Csm1^69–181 (untagged, coexpressed) (domain or fragment, S. cerevisiae, UniProt P25651 69-181, looked up)
chain: ENSEVIKDLYEYLCNVRVHKSYEDDSGLWFDISQGTHSGGSSDDYSIMDYKLGFVKGQAQVTEVIYAPVLKQRSTEELYSLQSKLPEYLFETLSFPLSSLNQFYNKIAKSLNK
B2: GST-Ulp2^781–873 F827A (domain or fragment, S. cerevisiae, UniProt P40537 781-873, looked up)
chain: EDPVRAASPETASVSPPIRHNILKSSSPFISESANETEQEEFTSPYAGRPSLKTRAKQFEGVSSPIKNDQALSSTHDIMMPSPKPKRIYPSKK
B3: GST-Ulp2^781–873 F839A (domain or fragment, S. cerevisiae, UniProt P40537 781-873, looked up)
chain: B2 chain with A47F, F59A
B4: His6-GST-Ulp2^781–873 (domain or fragment, S. cerevisiae, UniProt P40537 781-873, looked up)
chain: B2 chain with A47F
B5: His6-GST-Ulp2^781–873 F839D (domain or fragment, S. cerevisiae, UniProt P40537 781-873, looked up)
chain: B2 chain with A47F, F59D
B6: Csm1^69–190 (untagged, coexpressed) (domain or fragment, S. cerevisiae, UniProt P25651 69-190, looked up)
chain: ENSEVIKDLYEYLCNVRVHKSYEDDSGLWFDISQGTHSGGSSDDYSIMDYKLGFVKGQAQVTEVIYAPVLKQRSTEELYSLQSKLPEYLFETLSFPLSSLNQFYNKIAKSLNKKREKKDETE

Legend:
SUMO-Ulp2^781–873 = target: T1, SUMO-Ulp2^781–873 (S. cerevisiae, UniProt P40537 781-873); assay: SEC-MALS
T1 sequence (looked up): B2 chain with A47F

crystal structure = target: the molecule itself; assay: crystal structure
His6-Csm1 (full-length) = target: T2, His6-Csm1 (full-length) (S. cerevisiae, UniProt P25651 1-190); assay: pull-down
T2 sequence (looked up): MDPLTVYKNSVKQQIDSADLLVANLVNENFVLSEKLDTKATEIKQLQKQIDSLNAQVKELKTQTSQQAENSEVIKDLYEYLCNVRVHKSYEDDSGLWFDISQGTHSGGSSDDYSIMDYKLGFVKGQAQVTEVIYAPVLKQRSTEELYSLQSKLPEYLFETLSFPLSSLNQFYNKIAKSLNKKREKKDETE

His6-Csm1^69–190 = target: T3, His6-Csm1^69–190 (S. cerevisiae, UniProt P25651 69-190); assay: ITC
T3 sequence (looked up): B6 chain

[1] = target: T4, Ulp2^825–844–Tof2^384–400 fusion (S. cerevisiae, UniProt P40537 825-844; Q02208 384-400); assay: co-expression in E. coli and co-purification
T4 chain (looked up): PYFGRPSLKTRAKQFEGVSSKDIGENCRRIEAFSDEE

Binder | binding result (His6-Csm1 (full-length)) | Ka (His6-Csm1^69–190) | dH (His6-Csm1^69–190) | stoichiometry N (His6-Csm1^69–190) | further results
B1 |  |  |  |  | stoichiometry N (SUMO-Ulp2^781–873): 1 Csm1 per Ulp2 (2:2); stoichiometry N (crystal structure): 2
B2 | binds |  |  |  | 
B3 | binds |  |  |  | 
B4 |  | 1.07e+06 M⁻¹ | -8613 ± 51.7 cal/mol | 0.91 ± 0.004 | 
B5 |  | 55800 M⁻¹ | -1080 ± 58.4 cal/mol | 0.46 ± 0.02 | 
B6 |  |  |  |  | stoichiometry N [1]: 1 Csm1 per fusion chain (2:2)
